Data on one molecule can be found in patent US20230167164A1 (IMMUNOWAKE, published 2023).

In the assay the target is T1, human IL-2 receptor (human, UniProt P01589 22-272; P14784 27-551; P31785 23-369).
T1 construct: whole, on cells; also called IL-2Rα, IL-2Rβ, IL-2Rγ; HEK-Blue IL-2 cells
T1 sequence (looked up) 1: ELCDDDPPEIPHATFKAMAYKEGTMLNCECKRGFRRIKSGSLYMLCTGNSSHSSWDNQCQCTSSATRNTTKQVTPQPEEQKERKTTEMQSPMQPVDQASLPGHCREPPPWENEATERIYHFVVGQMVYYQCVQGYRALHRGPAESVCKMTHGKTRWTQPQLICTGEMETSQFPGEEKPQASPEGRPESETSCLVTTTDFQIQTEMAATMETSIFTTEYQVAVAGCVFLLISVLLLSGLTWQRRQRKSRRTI
T1 sequence (looked up) 2: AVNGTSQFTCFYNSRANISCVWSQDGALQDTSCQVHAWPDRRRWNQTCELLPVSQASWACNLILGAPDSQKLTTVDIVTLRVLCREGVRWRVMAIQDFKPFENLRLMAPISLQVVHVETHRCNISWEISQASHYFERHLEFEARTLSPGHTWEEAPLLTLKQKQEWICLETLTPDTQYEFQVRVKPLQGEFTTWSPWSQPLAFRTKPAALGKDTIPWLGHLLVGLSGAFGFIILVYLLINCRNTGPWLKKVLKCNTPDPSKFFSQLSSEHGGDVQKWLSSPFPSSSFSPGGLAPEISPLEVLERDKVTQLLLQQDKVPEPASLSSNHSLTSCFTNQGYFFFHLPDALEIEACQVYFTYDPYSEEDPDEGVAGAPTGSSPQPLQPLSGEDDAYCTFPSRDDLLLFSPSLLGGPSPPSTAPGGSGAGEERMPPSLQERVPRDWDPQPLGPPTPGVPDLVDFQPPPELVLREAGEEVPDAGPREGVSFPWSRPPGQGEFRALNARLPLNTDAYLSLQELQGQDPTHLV
T1 sequence (looked up) 3: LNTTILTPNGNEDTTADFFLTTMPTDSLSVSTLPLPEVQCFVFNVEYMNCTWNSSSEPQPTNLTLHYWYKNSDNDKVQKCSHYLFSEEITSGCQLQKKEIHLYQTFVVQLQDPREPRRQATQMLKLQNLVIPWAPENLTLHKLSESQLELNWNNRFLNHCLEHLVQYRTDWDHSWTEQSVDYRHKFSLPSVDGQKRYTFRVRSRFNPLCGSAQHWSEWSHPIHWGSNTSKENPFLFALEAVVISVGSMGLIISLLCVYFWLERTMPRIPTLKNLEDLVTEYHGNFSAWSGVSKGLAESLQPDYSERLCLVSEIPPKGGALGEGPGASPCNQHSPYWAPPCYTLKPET
Kind of assay: FACS on HEK-Blue IL-2 cells (IL-2 receptor, no PD-1).

B1: ligand-IL-2 mutant-PD-L2-Fc (Fc fusion)
chain 1: LFTVTVPKELYIIEHGSNVTLECNFDTGSHVNLGAITASLQKVENDTSPHRERATLLEEQLPLGKASFHIPQVQVRDEGQYQCIIIYGVAWDYKYLTLKVKASYRKINTHILKVPETDEVELTCQATGYPLAEVSWPNVSVPANTSHSRTPEGLYQVTSVLRLKPPPGRNFSCVFWNTHVRELTLASIDLQSQMEPRTHPTGGGGSAPTSSSTKKTQLQLEHLLLDLQMILNGINNYKNPKLTDMLTFEFYMPKKATELKHLQCLERELKPLEEVLNLAQSKNFHLRPRDLISNINVIVLELKGSETTFMCEYADETATIVEFLNRWITFCQSIISTLTDKTHTCPPCPAPEDEGGPSVFLFPPKPKDTLMISRTPEVTCVVVDVSHEDPEVKFNWYVDGVEVHNAKTKPREEQYNSTYRVVSVLTVLHQDWLNGKEYKCKVSNKALPAPIEKTISKAKGQPREPQVYVYPPSREEMTKNQVSLTCLVKGFYPSDIAVEWESNGQPENNYKTTPPVLDEDGSFALVSKLTVDKSRWQQGNVFSCSVMHEALHNHYTQKSLSLSPGK
chain 2: LFTVTVPKELYIIEHGSNVTLECNFDTGSHVNLGAITASLQKVENDTSPHRERATLLEEQLPLGKASFHIPQVQVRDEGQYQCIIIYGVAWDYKYLTLKVKASYRKINTHILKVPETDEVELTCQATGYPLAEVSWPNVSVPANTSHSRTPEGLYQVTSVLRLKPPPGRNFSCVFWNTHVRELTLASIDLQSQMEPRTHPTGGGGSDKTHTCPPCPAPEKKGGPSVFLFPPKPKDTLMISRTPEVTCVVVDVSHEDPEVKFNWYVDGVEVHNAKTKPREEQYNSTYRVVSVLTVLHQDWLNGKEYKCKVSNKALPAPIEKTISKAKGQPREPQVYVLPPSREEMTKNQVSLLCLVKGFYPSDIAVEWESNGQPENRYMTWPPVLDSDGSFFLYSKLTVDKSRWQQGNVFSCSVMHEALHNHYTQKSLSLSPGK
notes: also called IL-2(R38D/K43E/E61R)/PD-L2-Fc immunocytokine; construct #11
In the case of B1, the binding result was “no binding”.
